Patent publication US20230303681A1 (published 2023)
Values joined by “and” are separate entries in the source; they are usually repeats but may differ in a detail not shown here. Equal entries are not always repeated.

B1: anti-TMEM106B antibody TM-27 (antibody, V domains shown)
VH: QVQLQQSGAELVRPGTSVKVSCKASGYALTNYLIEWVKQRPGQGLEWIGVINPGSGSTKYNEKFKGKATLTADKSSSTAYMQLSSLTSEDSAVYFCARIIYDHDWYFDVWGTGTTVTVSS
VL: QIVLTQSPAIMSASPGEKVTISCSASSSISYMYWYQQKPGSSPKPWIYRTSTLASGVPARFSGSGSGTSYSLTISSMEAEDAATYYCQQYHSYPRTFGGGTKLEIK
B2: anti-TMEM106B antibody TM-11 (antibody, V domains shown)
VH: QVQLKQSGPGQVQPSQSLSITCTVSGFSLSDYGVHWVRQSPGKGLEWLGVIWNNGNTDYNAAFISRLSINKDNSKSQVFFKMTSLQADDTAIYYCVRSLRPLHFDYWGQGTTVTVSS
VL: DIVMTQSPSSLTMSVGQKVTMHCKSSQSLLNSNNLQNYLAWYQQKPGQSPTLLVYFASIRESGVPDRFIGSGSGTDFTLTISSVQAEDLADYFCQQHYNTPFTFGSGTKLEIR
B3: anti-TMEM106B antibody TM-25 (antibody, V domains shown)
VH: EVQLVESGGDLVKPGGSLRLSCAASGFTFSGYGMSWIRQTPDKRLEWVATISSGGRYTVYPDSVKGRFTMSRDNVKNTLYLQMSSLKSEDTALYYCARDNFYSYAMDYWGLGTSVTVSA
VL: DIVMTQAAFSNPVTLGTSASISCRSSKSLLHSNGITYLFWYLQKPGQSPQLLIYQMSNLASGVPDRFSSSGSGTDFTLRISRVEAEDVGVYYCAQNLELWTFGGGTKLEIK
B4: anti-TMEM106B antibody TM-23 (antibody, V domains shown)
VH: QVQLQQSGAELIRPGTSVKVSCKASGYAFTNYLIEWVKKRPGQGLEWIGVINPGSGITNYNEKFKGKATLTADKSSSTAYMQLSSLTSEDSAVYFCARSDFITTVVADYWGQGTTVTVSS
VL: DIVVTQTPLSLPVSFGDQVSISCRSSQSLTNYYGNTYLSWYLHKPGQSPQLLIYGISNRFSGVPDRFSGSGSGTDFTLKISTIKPEDLGMYYCLQGTHQPRTFGGGTKLEIK
B5: anti-TMEM106B antibody TM-26 (antibody, V domains shown)
VH: QVQLQQSGAELIRPGTSVKVSCKASGYAFTNYLIEWVKKRPGQGLEWIGVINPGSGITNYNEKFKGKATLTADKSSSTAYMQLSSLTSEDSAVYFCARSDFITTVVADYWGQGTTVTVSS
VL: DIVVTQTPLSLPVSFGDQVSISCRSSQSLTNYYGNTYLSWYLHKPGQSPQLLIYGISNRFSGVPDRFSGSGSGTDFTLKISTIKPEDLGMYYCLQGTHQPRTFGGGTKLEIK
B6: anti-TMEM106B antibody TM-21 (antibody, V domains shown)
VH: EVQLVESGGGLVKPGGSLKLSCAASGFTFSNYAMSWVRETPEKRLEWVAFISDGGGYIYYADNVKDRFTISRDNAKNNLYLQMRHLKSEDTAMYYCARDGGTGFTYWGQGTLVTVSV
VL: DIVMTQAAFSNPVTLGTSASISCRSSKSLLHSNGITYLFWYLQKPGQSPQLLIYQMSNLASGVPDRFSSSGSGTDFTLRISRVEAEDVGVYYCVQNLELPYTFGGGTKLEIK
B7: anti-TMEM106B antibody TM-12 (antibody, V domains shown)
VH: EVQLQQSGAELMRPGASVKLSCTASGFNIQDYYMYWVKQRPEQGLEWIGRIDPEDGDAEYAPKFQGKATMTADTSSNTAYLQLSSLTSEDTAVYYCSTRVIYDGYYRTMDCWGQGTSVTVSS
VL: DVLMTQIPLSLPVSLGDQASISCRSSQTIVHSNGNTYLEWYLKKPGQSPKLLIDKISNRFSGVPDRFSGSGSGTDFTLKISRVEAEDLGVYYCFQGSHVPYTFGGGTKLEIK

Columns and labels:
[1] = biological target: T1, human TMEM106B (human, UniProt Q9NUM4 2-274); experiment: FACS U251;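 note: flow cytometry of cells exposed to antibody (purified at 10 µg/mL, or hybridoma supernatant) for 1 h on ice, with propidium iodide-positive dead cells gated out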
T1 construct: Full-length, on transiently transfected HEK293 cells, or natively expressed on HeLa, U251 and A549 cells; also called huTMEM106B; huTMEM

[2] = biological target: T1, human TMEM106B; experiment: FACS A549, 10 ug/ml
Procedure: (§1) Purified anti-TMEM106B antibodies were evaluated for their binding affinity to various TMEM106B-expressing cell lines including HEK293 transiently transfected with human/cyno/mouse TMEM106B, as well as HeLa cells and A549 cells. Antibodies tested for this experiment were mouse IgGs purified from hybridoma supernatant. Affinity binding to cells was determined as follows. Briefly, 1x10^5 cells were aliquoted per well in 96-well round bottom plates and incubated with 50 µL of purified anti-TMEM106B antibody at various concentrations (10x dilutions starting at 10 µg/ml) in FACS buffer (PBS + 2% FBS + 1 mM EDTA). […] Sorting was performed on a iQue (Intellicyt), with sort gates drawn to exclude dead (propidium iodide +) cells. Binding data was analyzed using median fluorescent intensity (MFI) and graphed in Prism. Values presented are MFI.

[3] = biological target: T1, human TMEM106B; experiment: FACS HEK+huTMEM, 0.01 ug/ml
Procedure: as §1

[4] = biological target: T1, human TMEM106B; experiment: FACS HEK+huTMEM, 10 ug/ml;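 note: purified mouse IgG antibodies at 10 µg/ml bound to HEK293 cells transiently expressing human TMEM106B, measured by flow cytometry as median fluorescence intensity of propidium iodide negative live cells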
Procedure: as §1

[5] = biological target: T2, GST (Pierce) (UniProt P08515 1-218 = GST, limits assumed); experiment: ELISA, coated GST;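 note: ELISA on plates coated with GST alone at 1-10 µg/ml, antibodies applied at 100-1000x dilution, bound antibody detected by peroxidase substrate colour after acid stop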
T2 construct: control for the GST part of the fusion protein; also called GST protein; Glutathione-S-transferase

[6] = biological target: T1, human TMEM106B; experiment: FACS HEK+huTMEM, 1.0 ug/ml
[7] = biological target: T3, mouse TMEM106B (mouse, UniProt Q80X71 2-275); experiment: FACS, HEK293 transfectants;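 note: flow cytometry binding of hybridoma supernatants to HEK293 cells transiently expressing human, cyno or mouse TMEM106B, read as anti-mouse-APC median fluorescence, live cells only, 30 min on ice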
T3 construct: on transiently transfected HEK293 cells, or natively expressed on mouse Neuro2a cells; also called moTMEM106B; murine TMEM106B
Procedure: (§2) For screening of the hybridoma cell culture supernatants, humanTMEM106B-transfected HEK293 cells were aliquoted in 96-well round bottom plates (2x10^5 cells per well) and incubated with 50 µL of hybridoma cell culture supernatant on ice for 30 minutes. […] Median fluorescence intensity (MFI) of anti-mouse-APC MFI on TMEM106B+ HEK293 cells was calculated for each clone, and those displaying a signal of at least 2-fold over background compared to a secondary-antibody only well were taken forward for further analysis and characterization.

[8] = biological target: T1, human TMEM106B; experiment: FACS, HEK293 transfectants;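 for fold over negative controls: hybridoma supernatants incubated 30 min on ice with human TMEM106B-expressing HEK293 cells, binding read as anti-mouse-APC median fluorescence on live cells, relative to secondary-antibody-only wells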;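 for fold-change over parental HEK293: flow cytometry binding of hybridoma supernatants to HEK293 cells transiently expressing human, cyno or mouse TMEM106B, read as anti-mouse-APC median fluorescence, live cells only, 30 min on ice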
Procedure: as §2

[9] = biological target: T4, cynomolgus (cyno) TMEM106B (cynomolgus, UniProt Q9NUM4 2-274 (human entry)); experiment: FACS, HEK293 transfectants;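 note: flow cytometry binding of hybridoma supernatants to HEK293 cells transiently expressing human, cyno or mouse TMEM106B, read as anti-mouse-APC median fluorescence, live cells only, 30 min on ice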
T4 construct: on transiently transfected HEK293 cells
Procedure: as §2

[10] = biological target: T1, human TMEM106B; experiment: FACS A549, 1 ug/ml
[11] = biological target: T1, human TMEM106B; experiment: FACS A549
Procedure: (§3) All cells were cultured in either T75 or T150 flasks. […] The enzyme was quenched by addition of fresh media, and the cells were then distributed into 96-well plates for FACS analysis.
(§4) FACS analysis was performed as follows. Each cell type was aliquoted in 96-well round bottom plates (2x10^5 cells per well), washed once with FACS buffer (PBS + 2% FBS + 1 mM EDTA), and incubated with 50 µL of hybridoma supernatant or purified antibody (10 µg/ml in FACS buffer) on ice for 1 hour. […] Following this secondary incubation, the cells were again washed 2x with ice-cold FACS buffer and resuspended in a final volume of 50 µL of FACS buffer + 0.25 µl/well propidium iodide (Fisher Scientific # BDB556463). Analysis was performed on a FACSCanto system (BD Biosciences) or iQue (Intellicyt), with sort gates drawn to exclude dead (i.e., propidium iodide positive) cells.
(§5) Data is presented as mean fluorescence intensity (MFI).

[12] = biological target: T1, human TMEM106B; experiment: FACS, HEK293 transfectants; remark: listed apart in the source;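 for fold over negative controls: hybridoma supernatants incubated 30 min on ice with human TMEM106B-expressing HEK293 cells, binding read as anti-mouse-APC median fluorescence on live cells, relative to secondary-antibody-only wells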;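 for fold-change over parental HEK293: flow cytometry binding of hybridoma supernatants to HEK293 cells transiently expressing human, cyno or mouse TMEM106B, read as anti-mouse-APC median fluorescence, live cells only, 30 min on ice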
[13] = biological target: T3, mouse TMEM106B; experiment: FACS Neuro2a;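 note: flow cytometry of cells stained with antibody or hybridoma supernatant (purified antibody at 10 µg/ml) for 1 h on ice, propidium iodide–positive dead cells gated out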
[14] = biological target: T1, human TMEM106B; experiment: FACS HEK+huTMEM, 0.1 ug/ml;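 note: flow cytometry binding of purified mouse IgG antibodies to HEK293 cells transiently expressing TMEM106B, read as median fluorescence intensity with propidium iodide positive dead cells gated out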
Procedure: as §1

[15] = biological target: T1, human TMEM106B; experiment: FACS HeLa;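 note: flow cytometry of cells incubated with hybridoma supernatant or purified antibody at 10 µg/ml for 1 h on ice, propidium iodide–positive dead cells gated out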
Procedure: as §3, §4, §5

[16] = biological target: T5, GST-fusion human TMEM106B truncated (human); experiment: array SPR, Ab immobilised;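 note: antibodies amine-coupled on an MX-96 chip, antigen flowed at 500 nM top concentration in 5-fold serial dilutions, GST alone run as nonspecific-binding control, duplicate measurements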
T5 construct: also called GST-TMEM106B-truncated protein; GST-TMEM106B (truncated)

Row | Binder | MFI [1] | MFI [2] | MFI [3] | MFI [4] | binding result [5] | MFI [6] | fold-change over parental HEK293 [7] [fold] | fold-change over parental HEK293 [8] [fold] | fold-change over parental HEK293 [9] [fold] | MFI [10] | MFI [11] | fold over negative controls [12] [fold] | MFI [13] | MFI [14] | MFI [15] | Kd [16] | koff [16] | kon [16]
1 | B1 | 1320 | 622 | 744 | 4140 | no binding | 3040 | 3.32 | 7.62 | 13.5 | 431 | 1930 | > 2 | 1580 | 1700 | 2960 | 16 nM and 18 nM | 0.00048 s⁻¹ and 0.00068 s⁻¹ | 31000 M⁻¹ s⁻¹ and 39000 M⁻¹ s⁻¹
2 | B2 | 866 | 5580 | 4280 | 57900 | no binding | 54600 | 18.3 | 9.96 | 23.7 | 2870 | 1340 | > 2 | 1040 | 16200 | 1870 | 2.1 nM | 5.2e-05 s⁻¹ and 5.7e-05 s⁻¹ | 24000 M⁻¹ s⁻¹ and 27000 M⁻¹ s⁻¹
3 | B3 | 1110 | 7000 | 4310 | 60300 | no binding | 64700 | 2.87 | 13 | 21.4 | 4530 | 1700 | > 2 | 354 | 32800 | 2560 | 1.5 nM and 2.6 nM | 3.3e-05 s⁻¹ and 5.8e-05 s⁻¹ | 22000 M⁻¹ s⁻¹
4 | B4 | 278 | 757 | 1100 | 12400 | no binding | 3900 | 4.46 | 7.09 | 12.2 | 398 | 1090 | > 2 | 333 | 2410 | 308 | 12 nM and 26 nM | 0.00045 s⁻¹ and 0.001 s⁻¹ | 36000 M⁻¹ s⁻¹ and 41000 M⁻¹ s⁻¹
5 | B5 | 300 | 509 | 1000 | 3850 | no binding | 3340 | 6.54 | 11.8 | 18 | 380 | 952 | > 2 | 324 | 1960 | 384 | 12 nM and 19 nM | 0.00041 s⁻¹ and 0.00085 s⁻¹ | 34000 M⁻¹ s⁻¹ and 45000 M⁻¹ s⁻¹
6 | B6 | 672 | 4230 | 2350 | 69400 | no binding | 69400 | 46.5 | 29.8 | 48.9 | 2030 | 1030 | > 2 | 706 | 15600 | 1200 | 2.9 nM and 4.1 nM | 5.2e-05 s⁻¹ and 7.1e-05 s⁻¹ | 18000 M⁻¹ s⁻¹ and 17000 M⁻¹ s⁻¹
7 | B7 | 1330 | 4950 | 3340 | 75300 | no binding | 77800 | 32.7 | 25.9 | 44.1 | 3150 | 1940 | > 2 | 3040 | 19700 | 2660 | – | – | 21000 M⁻¹ s⁻¹ and 29000 M⁻¹ s⁻¹
